The values below come from US20030022260.

Data set [1] relates to HA-E2F-5/DP-1 in cells (Homo sapiens). Put plainly: cell_activity. The settings on record: U2-OS CAT reporter; E2F-5 plus DP-1.
For data set [2], the target named is GAD-E2F-5/LexA-DP-1 in yeast (Mus musculus) (UniProt Q61502+Q08639). Put plainly: cell_activity. The conditions noted are these: yeast lacZ reporter.
Sequence of GAD-E2F-5/LexA-DP-1 in yeast (Mus musculus) (Q61502 whole entry, chain 1 of 2): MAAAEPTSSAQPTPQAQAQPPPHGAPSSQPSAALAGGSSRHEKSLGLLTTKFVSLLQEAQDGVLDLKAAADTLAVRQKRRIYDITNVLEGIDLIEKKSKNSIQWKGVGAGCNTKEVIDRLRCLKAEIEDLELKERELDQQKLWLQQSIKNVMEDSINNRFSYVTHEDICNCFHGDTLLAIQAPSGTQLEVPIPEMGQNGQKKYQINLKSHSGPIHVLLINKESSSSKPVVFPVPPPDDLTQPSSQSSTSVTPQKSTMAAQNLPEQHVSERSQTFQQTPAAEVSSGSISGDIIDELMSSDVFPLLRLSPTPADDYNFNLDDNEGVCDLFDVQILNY
Sequence of GAD-E2F-5/LexA-DP-1 in yeast (Mus musculus) (Q08639 whole entry, chain 2 of 2): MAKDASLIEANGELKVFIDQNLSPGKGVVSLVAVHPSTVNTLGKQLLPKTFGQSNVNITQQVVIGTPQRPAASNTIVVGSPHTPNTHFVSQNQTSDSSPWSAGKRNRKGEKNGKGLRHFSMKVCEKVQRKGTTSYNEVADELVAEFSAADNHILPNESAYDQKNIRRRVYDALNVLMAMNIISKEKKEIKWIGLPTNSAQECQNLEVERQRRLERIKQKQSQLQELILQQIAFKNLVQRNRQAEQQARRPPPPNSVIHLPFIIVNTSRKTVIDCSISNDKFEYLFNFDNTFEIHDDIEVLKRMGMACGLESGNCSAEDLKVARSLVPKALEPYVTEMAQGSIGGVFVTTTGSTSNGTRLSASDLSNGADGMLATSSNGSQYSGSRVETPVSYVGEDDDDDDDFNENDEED

As to E2F4-CAT reporter, four E2F sites, in data set [1], the activity (fold activation) is above 100.

“p4xWT CYC1 reporter, four wild-type E2F sites” showed an activity (fold activation) in data set [2] above 6.
